Assay results as given in patent publication WO2016171242A1 (dated 2016).

Assays:
[1] = biological target: T1, human EPHA7 without signal sequence, FLAG-tagged, expressed from pFLAG-EPHA7 (human, UniProt Q15375 28-998); test: flow cytometry on transfected 293F cells
T1 construct: not shown: FLAG tag supplied by the vector pFLAG-GW

[2] = biological target: T2, human EPHA3 without signal sequence, FLAG-tagged, expressed from pFLAG-EPHA3 (human, UniProt P29320 21-983); test: flow cytometry on transfected 293F cells
T2 construct: not shown: FLAG tag supplied by the vector pFLAG-GW
T2 sequence: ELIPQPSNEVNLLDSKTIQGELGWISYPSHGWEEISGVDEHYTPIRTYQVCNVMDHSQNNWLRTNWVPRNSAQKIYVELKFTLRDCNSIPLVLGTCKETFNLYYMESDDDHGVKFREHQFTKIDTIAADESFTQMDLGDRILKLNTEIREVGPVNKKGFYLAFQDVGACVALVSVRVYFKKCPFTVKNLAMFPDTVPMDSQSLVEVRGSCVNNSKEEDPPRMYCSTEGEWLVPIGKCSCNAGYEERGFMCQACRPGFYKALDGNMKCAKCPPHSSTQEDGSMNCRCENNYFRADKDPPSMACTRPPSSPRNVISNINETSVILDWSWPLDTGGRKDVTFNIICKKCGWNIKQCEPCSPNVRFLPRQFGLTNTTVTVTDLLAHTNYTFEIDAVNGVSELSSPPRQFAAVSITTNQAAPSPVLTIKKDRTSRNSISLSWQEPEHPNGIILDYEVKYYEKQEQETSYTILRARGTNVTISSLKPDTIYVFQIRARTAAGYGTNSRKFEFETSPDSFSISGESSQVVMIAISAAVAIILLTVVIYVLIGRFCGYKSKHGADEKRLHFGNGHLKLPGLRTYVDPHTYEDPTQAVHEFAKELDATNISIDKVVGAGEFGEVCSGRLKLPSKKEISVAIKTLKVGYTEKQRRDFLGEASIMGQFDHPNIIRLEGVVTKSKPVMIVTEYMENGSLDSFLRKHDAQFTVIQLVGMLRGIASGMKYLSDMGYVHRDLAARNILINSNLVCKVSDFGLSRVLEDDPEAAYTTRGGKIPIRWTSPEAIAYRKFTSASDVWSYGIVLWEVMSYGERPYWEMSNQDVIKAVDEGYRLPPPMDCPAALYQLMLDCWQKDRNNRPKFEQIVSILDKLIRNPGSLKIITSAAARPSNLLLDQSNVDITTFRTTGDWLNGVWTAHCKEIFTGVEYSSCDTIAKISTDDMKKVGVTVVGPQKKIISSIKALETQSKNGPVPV

[3] = biological target: T3, human PTPRF isoform 2 without signal sequence, FLAG-tagged, expressed from pFLAG-PTPRF-2 (human, UniProt P10586 30-1907); test: flow cytometry on transfected 293F cells
T3 construct: not shown: FLAG tag supplied by the vector pFLAG-GW
T3 sequence (P10586 other isoform, or with tags, fused parts or gaps): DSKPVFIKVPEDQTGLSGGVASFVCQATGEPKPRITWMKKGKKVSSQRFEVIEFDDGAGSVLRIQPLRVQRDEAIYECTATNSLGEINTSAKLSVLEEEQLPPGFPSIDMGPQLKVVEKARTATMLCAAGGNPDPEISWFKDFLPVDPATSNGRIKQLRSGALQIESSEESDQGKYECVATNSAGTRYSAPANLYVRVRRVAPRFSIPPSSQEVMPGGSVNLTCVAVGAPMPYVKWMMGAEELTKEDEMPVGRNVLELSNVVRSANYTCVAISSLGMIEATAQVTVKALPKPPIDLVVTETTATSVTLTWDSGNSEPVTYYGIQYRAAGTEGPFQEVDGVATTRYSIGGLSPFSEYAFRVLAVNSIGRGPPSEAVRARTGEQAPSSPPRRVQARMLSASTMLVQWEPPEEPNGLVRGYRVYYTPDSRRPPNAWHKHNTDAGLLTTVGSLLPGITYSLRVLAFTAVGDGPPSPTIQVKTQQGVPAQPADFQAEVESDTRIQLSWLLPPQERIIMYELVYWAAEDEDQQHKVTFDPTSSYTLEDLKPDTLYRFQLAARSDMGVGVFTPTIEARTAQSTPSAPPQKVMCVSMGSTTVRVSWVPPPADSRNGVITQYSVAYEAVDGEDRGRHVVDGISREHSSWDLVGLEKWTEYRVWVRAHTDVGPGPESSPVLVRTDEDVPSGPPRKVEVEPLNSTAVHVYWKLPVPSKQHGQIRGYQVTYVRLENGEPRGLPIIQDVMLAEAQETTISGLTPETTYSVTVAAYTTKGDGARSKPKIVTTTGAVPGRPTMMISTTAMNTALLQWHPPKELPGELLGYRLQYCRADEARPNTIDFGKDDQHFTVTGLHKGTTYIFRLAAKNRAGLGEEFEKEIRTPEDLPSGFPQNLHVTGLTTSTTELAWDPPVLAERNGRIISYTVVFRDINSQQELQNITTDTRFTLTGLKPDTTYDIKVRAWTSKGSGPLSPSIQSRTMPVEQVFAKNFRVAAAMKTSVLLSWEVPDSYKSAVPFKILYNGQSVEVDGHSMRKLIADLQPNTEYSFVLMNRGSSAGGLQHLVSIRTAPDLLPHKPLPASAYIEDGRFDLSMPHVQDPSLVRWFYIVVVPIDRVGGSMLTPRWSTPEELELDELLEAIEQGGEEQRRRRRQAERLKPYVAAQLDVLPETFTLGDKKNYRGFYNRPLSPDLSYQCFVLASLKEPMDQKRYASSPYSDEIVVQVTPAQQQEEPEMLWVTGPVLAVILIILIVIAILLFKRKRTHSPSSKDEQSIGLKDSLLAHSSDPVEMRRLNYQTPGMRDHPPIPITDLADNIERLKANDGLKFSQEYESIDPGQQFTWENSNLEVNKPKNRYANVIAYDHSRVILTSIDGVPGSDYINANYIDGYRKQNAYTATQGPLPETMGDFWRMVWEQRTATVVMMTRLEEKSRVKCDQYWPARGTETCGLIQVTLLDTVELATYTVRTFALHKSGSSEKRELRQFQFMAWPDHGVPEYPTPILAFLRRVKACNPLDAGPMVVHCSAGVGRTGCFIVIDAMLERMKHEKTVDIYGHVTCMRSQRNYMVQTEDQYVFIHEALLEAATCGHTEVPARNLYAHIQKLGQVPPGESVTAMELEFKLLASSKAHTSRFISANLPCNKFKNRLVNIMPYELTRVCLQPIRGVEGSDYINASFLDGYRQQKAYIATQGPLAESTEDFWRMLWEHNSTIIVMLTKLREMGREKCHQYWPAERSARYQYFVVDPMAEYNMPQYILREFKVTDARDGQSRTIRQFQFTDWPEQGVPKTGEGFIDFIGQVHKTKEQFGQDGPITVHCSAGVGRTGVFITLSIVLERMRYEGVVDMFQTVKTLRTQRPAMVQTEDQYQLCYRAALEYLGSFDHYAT

[4] = biological target: T4, human EPHB4 without signal sequence, FLAG-tagged, expressed from pFLAG-EPHB4 (human, UniProt P54760 16-987); test: flow cytometry on transfected 293F cells
T4 construct: not shown: FLAG tag supplied by the vector pFLAG-GW
T4 sequence: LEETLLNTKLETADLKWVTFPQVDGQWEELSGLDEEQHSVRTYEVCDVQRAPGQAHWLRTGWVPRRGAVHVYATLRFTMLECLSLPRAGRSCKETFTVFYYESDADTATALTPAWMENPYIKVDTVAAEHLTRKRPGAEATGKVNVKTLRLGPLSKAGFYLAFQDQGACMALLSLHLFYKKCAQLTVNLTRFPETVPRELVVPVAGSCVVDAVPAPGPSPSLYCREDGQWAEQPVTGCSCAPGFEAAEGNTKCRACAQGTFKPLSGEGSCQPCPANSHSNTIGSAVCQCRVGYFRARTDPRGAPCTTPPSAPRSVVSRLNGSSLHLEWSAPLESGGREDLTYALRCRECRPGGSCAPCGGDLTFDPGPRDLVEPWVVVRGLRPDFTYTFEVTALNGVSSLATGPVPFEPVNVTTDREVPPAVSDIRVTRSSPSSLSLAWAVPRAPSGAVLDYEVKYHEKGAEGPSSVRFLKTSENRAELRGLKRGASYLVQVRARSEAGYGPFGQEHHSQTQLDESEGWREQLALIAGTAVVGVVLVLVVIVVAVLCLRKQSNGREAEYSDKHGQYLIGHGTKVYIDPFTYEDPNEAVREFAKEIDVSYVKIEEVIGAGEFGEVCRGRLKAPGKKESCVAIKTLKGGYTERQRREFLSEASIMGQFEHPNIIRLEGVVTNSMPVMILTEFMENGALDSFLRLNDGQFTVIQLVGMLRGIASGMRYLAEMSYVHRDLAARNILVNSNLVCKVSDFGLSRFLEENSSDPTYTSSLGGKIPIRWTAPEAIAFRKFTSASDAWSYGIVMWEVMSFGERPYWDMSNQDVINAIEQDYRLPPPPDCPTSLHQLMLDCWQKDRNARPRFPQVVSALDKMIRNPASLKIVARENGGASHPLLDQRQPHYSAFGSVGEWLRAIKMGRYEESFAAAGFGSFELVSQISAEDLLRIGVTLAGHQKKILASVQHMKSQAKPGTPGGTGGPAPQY

[5] = biological target: T5, human EPHA2 without signal sequence, FLAG-tagged, expressed from pFLAG-EPHA2 (human, UniProt P29317 24-976); test: immunohistochemistry on formalin-fixed, paraffin-embedded 293F cells transiently expressing EPHA2; antibody at 2.5 μg/mL
T5 construct: formalin-fixed, paraffin-embedded; not shown: FLAG tag supplied by the vector pFLAG-GW (from pFLAG-myc-CMV19)
T5 sequence (P29317 24-976): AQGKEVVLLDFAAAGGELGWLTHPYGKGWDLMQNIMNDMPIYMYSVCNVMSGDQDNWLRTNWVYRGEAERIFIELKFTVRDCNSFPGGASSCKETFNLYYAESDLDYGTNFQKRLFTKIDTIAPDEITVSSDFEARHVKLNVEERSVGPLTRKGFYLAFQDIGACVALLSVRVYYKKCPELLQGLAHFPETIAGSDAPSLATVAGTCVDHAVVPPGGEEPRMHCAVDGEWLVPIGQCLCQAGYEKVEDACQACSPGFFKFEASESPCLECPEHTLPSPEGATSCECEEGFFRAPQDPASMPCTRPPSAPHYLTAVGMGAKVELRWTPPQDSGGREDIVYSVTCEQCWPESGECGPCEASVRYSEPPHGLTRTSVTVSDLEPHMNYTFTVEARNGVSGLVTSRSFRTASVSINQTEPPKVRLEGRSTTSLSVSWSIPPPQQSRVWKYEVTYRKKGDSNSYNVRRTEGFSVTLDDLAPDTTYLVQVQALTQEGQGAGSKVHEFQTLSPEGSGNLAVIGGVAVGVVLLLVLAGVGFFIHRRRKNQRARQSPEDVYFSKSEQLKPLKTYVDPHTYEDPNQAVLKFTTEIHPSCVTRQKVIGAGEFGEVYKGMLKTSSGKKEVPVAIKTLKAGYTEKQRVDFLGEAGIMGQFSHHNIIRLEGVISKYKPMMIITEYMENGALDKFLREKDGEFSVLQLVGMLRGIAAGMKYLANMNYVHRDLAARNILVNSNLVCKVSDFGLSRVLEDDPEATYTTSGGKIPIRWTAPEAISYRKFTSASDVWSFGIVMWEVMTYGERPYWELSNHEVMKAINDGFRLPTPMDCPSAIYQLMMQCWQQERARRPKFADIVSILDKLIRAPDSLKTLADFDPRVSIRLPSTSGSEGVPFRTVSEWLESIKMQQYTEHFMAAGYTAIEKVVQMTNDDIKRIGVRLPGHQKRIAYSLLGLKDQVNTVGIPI

T1 sequence (Q15375 28-998): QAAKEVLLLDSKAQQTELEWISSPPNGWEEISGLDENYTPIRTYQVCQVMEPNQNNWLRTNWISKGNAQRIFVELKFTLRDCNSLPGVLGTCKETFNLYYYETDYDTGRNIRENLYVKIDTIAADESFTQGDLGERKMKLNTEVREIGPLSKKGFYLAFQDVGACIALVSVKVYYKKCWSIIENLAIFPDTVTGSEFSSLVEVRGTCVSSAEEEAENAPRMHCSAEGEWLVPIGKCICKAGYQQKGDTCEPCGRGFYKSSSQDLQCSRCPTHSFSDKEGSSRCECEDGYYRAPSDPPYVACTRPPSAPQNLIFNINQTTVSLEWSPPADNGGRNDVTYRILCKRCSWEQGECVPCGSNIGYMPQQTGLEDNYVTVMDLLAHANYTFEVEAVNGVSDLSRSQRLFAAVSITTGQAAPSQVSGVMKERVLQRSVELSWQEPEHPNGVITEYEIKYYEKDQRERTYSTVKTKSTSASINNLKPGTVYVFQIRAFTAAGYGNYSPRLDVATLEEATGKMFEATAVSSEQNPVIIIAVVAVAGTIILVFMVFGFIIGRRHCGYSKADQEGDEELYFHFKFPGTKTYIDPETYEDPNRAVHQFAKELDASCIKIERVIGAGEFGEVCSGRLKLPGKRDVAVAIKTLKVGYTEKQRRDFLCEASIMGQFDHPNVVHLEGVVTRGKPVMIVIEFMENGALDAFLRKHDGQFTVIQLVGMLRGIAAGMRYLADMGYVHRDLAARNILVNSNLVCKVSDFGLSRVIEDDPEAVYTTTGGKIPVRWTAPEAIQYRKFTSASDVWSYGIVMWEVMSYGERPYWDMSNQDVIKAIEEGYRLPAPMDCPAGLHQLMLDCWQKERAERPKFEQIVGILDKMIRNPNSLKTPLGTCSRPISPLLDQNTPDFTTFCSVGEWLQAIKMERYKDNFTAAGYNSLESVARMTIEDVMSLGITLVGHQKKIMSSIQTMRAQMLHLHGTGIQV

B1: mouse anti-human EPHA2 antibody A205 (antibody, V domains shown)
VH: QIQLVQSGPELKKPGETVKISCKASGYTFTDYSMNWVKQAPGKGLKWMGWINTYTGEPTYADDFKGRFAFSLETSASTAYLQINNLKNEDTATYFCASPISLLRLLDYWGQGTTLTVSS
VL: DVVMTQTPLSLPVSLGDQASIPCRSSQSLVHSNGNTYLHWYLQKPGQSPKLLIYKVSNRFSGVPDRFSGSGSGTDFTLKISRVEAEDLGVYFCSQSTHVPWTFGGGTKLEIKR
notes: Mouse monoclonal antibody purified from hybridoma supernatant, isotype IgG2b; also called A205 antibody
binding result [1]: no binding | binding result [2]: no binding | binding result [3]: no binding | binding result [4]: no binding | binding result [5]: binds

B2: mouse anti-human EPHA2 antibody A201 (antibody, V domains shown)
VH: EVQLQQSGAELVKPGASVKLSCTVSGFTFKDTYVHWVKQRPEQGLEWIGRIDPANANTKYDPKFQGKASITADTSSNTAYLQLSSLPSEDTAVYYCAAYGKSAWFAYWGQGTLVTVSA
VL: DIQMTQTTSSLSASLGDRVTISCRASQDIGNYLNWYQQKPDGTVKVLIYYTSRLHSGVPSRFSGSGSGTDYSLTISNLEQEDIATYFCQQGHSLPPTFGGGTKLEIKR
notes: Mouse monoclonal antibody purified from hybridoma supernatant, isotype IgG1; also called A201 antibody
binding result [1]: no binding | binding result [2]: no binding | binding result [3]: no binding | binding result [4]: no binding | binding result [5]: binds
